Data set [1] relates to HeLa Kyoto. As to the kind of experiment: solubility in G1/S (NP-40 vs SDS abundance) (log2 ratio); higher = more soluble. As to conditions: cell cycle stage: G1/S.
Data set [2] has as its system HeLa Kyoto. Kind of data set: solubility change mitosis vs G1/S (difference of NP-40 vs SDS log2 ratios) (log2 ratio difference); higher = more soluble in mitosis.
Data set [3] has as its system HeLa Kyoto. Kind of data set: thermal stability score vs G1/S (z-score of summed log2 fold changes over temperatures); higher = more thermally stable than in G1/S.
Where [4] appears, read: cell cycle stage: early G1 (4.5 h after nocodazole release).
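Wherever solubility change mitosis vs G1/S (difference of NP-40 vs SDS log2 ratios) is given: synchronized HeLa Kyoto cells (double thymidine block for G1/S, nocodazole release for mitosis), protein amounts in NP-40 versus SDS lysates quantified by mass spectrometry, three biological replicates.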
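Wherever solubility in G1/S (NP-40 vs SDS abundance) is given: HeLa Kyoto cells arrested at G1/S by double thymidine block, proteins quantified by TMT10plex mass spectrometry in mild NP-40 versus SDS extracts, three biological replicates.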
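Wherever thermal stability score vs G1/S (z-score of summed log2 fold changes over temperatures) is given: synchronized HeLa Kyoto cells, proteins quantified by TMT10plex mass spectrometry, three biological replicates, mitosis taken 0.5 h after nocodazole release, G1/S directly after double thymidine block.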

Turning to “MKVVPEKNAVRILWGRERGARAMGAQRLLQELVEDKTRWMKWEGKRVELPDSPRSTFLLAFSPDRTLLASTHVNHNIYITEVKTGKCVHSLIGHRRTPWCVTFHPTISGLIASGCLDGEVRIWDLHGGSESWFTDSNNAIASLAFHPTAQLLLIATANEIHFWDWSRREPFAVVKTASEMERVRLVRFDPLGHYLLTAIVNPSNQQGDDEPEIPIDGTELSHYRQRALLQSQPVRRTPLLHNFLHMLSSRSSGIQVGEQSTVQDSATPSPPPPPPQPSTERPRTSAYIRLRQRVSYPTAECCQHLGILCLCSRCSGTRVPSLLPHQDSVPPASARATTPSFSFVQTEPFHPPEQASSTQQDQGLLNRPSAFSTVQSSTAGNTLRNLSLGPTRRSLGGPLSSHPSRYHREIAPGLTGSEWTRTVLSLNSRSEAESMPPPRTSASSVSLLSVLRQQEGGSQASVYTSATEGRGFPASGLATESDGGNGSSQNNSGSIRHELQCDLRRFFLEYDRLQELDQSLSGEAPQTQQAQEMLNNNIESERPGPSHQPTPHSSENNSNLSRGHLNRCRACHNLLTFNNDTLRWERTTPNYSSGEASSSWQVPSSFESVPSSGSQLPPLERTEGQTPSSSRLELSSSASPQEERTVGVAFNQETGHWERIYTQSSRSGTVSQEALHQDMPEESSEEDSLRRRLLESSLISLSRYDGAGSREHPIYPDPARLSPAAYYAQRMIQYLSRRDSIRQRSMRYQQNRLRSSTSSSSSDNQGPSVEGTDLEFEDFEDNGDRSRHRAPRNARMSAPSLGRFVPRRFLLPEYLPYAGIFHERGQPGLATHSSVNRVLAGAVIGDGQSAVASNIANTTYRLQWWDFTKFDLPEISNASVNVLVQNCKIYNDASCDISADGQLLAAFIPSSQRGFPDEGILAVYSLAPHNLGEMLYTKRFGPNAISVSLSPMGRYVMVGLASRRILLHPSTEHMVAQVFRLQQAHGGETSMRRVFNVLYPMPADQRRHVSINSARWLPEPGLGLAYGTNKGDLVICRPEALNSGVEYYWDQLNETVFTVHSNSRSSERPGTSRATWRTDRDMGLMNAIGLQPRNPATSVTSQGTQTLALQLQNAETQTEREVPEPGTAASGPGEGEGSEYGASGEDALSRIQRLMAEGGMTAVVQREQSTTMASMGGFGNNIIVSHRIHRSSQTGTEPGAAHTSSPQPSTSRGLLPEAGQLAERGLSPRTASWDQPGTPGREPTQPTLPSSSPVPIPVSLPSAEGPTLHCELTNNNHLLDGGSSRGDAAGPRGEPRNR [AMBRA1]”, in the data set with HeLa Kyoto [1], the “solubility in G1/S (log2)” value came out at 0.0307. Further, the “solubility change mitosis (log2)” value with HeLa Kyoto [2] is -0.123. Moreover, the thermal stability score in the data set on HeLa Kyoto [3] (setting [4]) stood at 0.941; in the data set with HeLa Kyoto [3] (cell cycle stage: mitosis), 1.96.
As to “MLGPCMLLLLLLLGLRLQLSLGIIPVEEENPDFWNREAAEALGAAKKLQPAQTAAKNLIIFLGDGMGVSTVTAARILKGQKKDKLGPEIPLAMDRFPYVALSKTYNVDKHVPDSGATATAYLCGVKGNFQTIGLSAAARFNQCNTTRGNEVISVMNRAKKAGKSVGVVTTTRVQHASPAGTYAHTVNRNWYSDADVPASARQEGCQDIATQLISNMDIDVILGGGRKYMFRMGTPDPEYPDDYSQGGTRLDGKNLVQEWLAKRQGARYVWNRTELMQASLDPSVTHLMGLFEPGDMKYEIHRDSTLDPSLMEMTEAALRLLSRNPRGFFLFVEGGRIDHGHHESRAYRALTETIMFDDAIERAGQLTSEEDTLSLVTADHSHVFSFGGYPLRGSSIFGLAPGKARDRKAYTVLLYGNGPGYVLKDGARPDVTESESGSPEYRQQSAVPLDEETHAGEDVAVFARGPQAHLVHGVQEQTFIAHVMAFAACLEPYTACDLAPPAGTTDAAHPGRSVVPALLPLLAGTLLLLETATAP [ALPP]”, the “solubility in G1/S (log2)” value in the data set with HeLa Kyoto [1] is -0.46. Besides, in the data set on HeLa Kyoto [2], the “solubility change mitosis (log2)” value was -0.115. Moreover, the thermal stability score with HeLa Kyoto [3] (setting [4]) is -3.03; in the data set with HeLa Kyoto [3] (cell cycle stage: mitosis), -2.91.
As to “MLPFLLATLGTTALNNSNPKDYCYSARIRSTVLQGLPFGGVPTVLALDFMCFLALLFLFSILRKVAWDYGRLALVTDADRLRRQERDRVEQEYVASAMHGDSHDRYERLTSVSSSVDFDQRDNGFCSWLTAIFRIKDDEIRDKCGGDAVHYLSFQRHIIGLLVVVGVLSVGIVLPVNFSGDLLENNAYSFGRTTIANLKSGNNLLWLHTSFAFLYLLLTVYSMRRHTSKMRYKEDDLVKRTLFINGISKYAESEKIKKHFEEAYPNCTVLEARPCYNVARLMFLDAERKKAERGKLYFTNLQSKENVPTMINPKPCGHLCCCVVRGCEQVEAIEYYTKLEQKLKEDYKREKEKVNEKPLGMAFVTFHNETITAIILKDFNVCKCQGCTCRGEPRPSSCSESLHISNWTVSYAPDPQNIYWEHLSIRGFIWWLRCLVINVVLFILLFFLTTPAIIITTMDKFNVTKPVEYLNNPIITQFFPTLLLWCFSALLPTIVYYSAFFEAHWTRSGENRTTMHKCYTFLIFMVLLLPSLGLSSLDLFFRWLFDKKFLAEAAIRFECVFLPDNGAFFVNYVIASAFIGNAMDLLRIPGLLMYMIRLCLARSAAERRNVKRHQAYEFQFGAAYAWMMCVFTVVMTYSITCPIIVPFGLMYMLLKHLVDRYNLYYAYLPAKLDKKIHSGAVNQVVAAPILCLFWLLFFSTMRTGFLAPTSMFTFVVLVITIVICLCHVCFGHFKYLSAHNYKIEHTETDTVDPRSNGRPPTAAAVPKSAKYIAQVLQDSEVDGDGDGAPGSSGDEPPSSSSQDEELLMPPDALTDTDFQSCEDSLIENEIHQ [TMEM63B]”, the “solubility in G1/S (log2)” value with HeLa Kyoto [1] is -0.0696. For the same sequence, in the data set with HeLa Kyoto [2], the “solubility change mitosis (log2)” value was -0.109. The thermal stability score was -2.78 with HeLa Kyoto [3] (setting [4]) and -2.41 in the data set on HeLa Kyoto [3] (cell cycle stage: mitosis).
Turning to “MLPRRLLAAWLAGTRGGGLLALLANQCRFVTGLRVRRAQQIAQLYGRLYSESSRRVLLGRLWRRLHGRPGHASALMAALAGVFVWDEERIQEEELQRSINEMKRLEEMSNMFQSSGVQHHPPEPKAQTEGNEDSEGKEQRWEMVMDKKHFKLWRRPITGTHLYQYRVFGTYTDVTPRQFFNVQLDTEYRKKWDALVIKLEVIERDVVSGSEVLHWVTHFPYPMYSRDYVYVRRYSVDQENNMMVLVSRAVEHPSVPESPEFVRVRSYESQMVIRPHKSFDENGFDYLLTYSDNPQTVFPRYCVSWMVSSGMPDFLEKLHMATLKAKNMEIKVKDYISAKPLEMSSEAKATSQSSERKNEGSCGPARIEYA [STARD7]”, in the data set on HeLa Kyoto [1], the “solubility in G1/S (log2)” value worked out at 0.128. The “solubility change mitosis (log2)” value with HeLa Kyoto [2] is -0.155. Also, the thermal stability score is -1.31 with HeLa Kyoto [3] (setting [4]) and -0.89 in the data set with HeLa Kyoto [3] (cell cycle stage: mitosis).
For “MLQNPQEKSQAYPRRRRPGCYAYRQNPEAIAAAAMYTFLPDNFSPAKPKPSKDLKPLLGSAVLGLLLVLAAVVAWCYYSVSLRKAERLRAELLDLKAGGFSIRNQKGEQVFRLAFRSGALDLDSCSRDGALLGCSLTADGLPLHFFIQTVRPKDTVMCYRVRWEEAAPGRAVEHAMFLGDAAAHWYGGAEMRTQHWPIRLDGQQEPQPFVTSDVYSSDAAFGGILERYWLSSRAAAIKVNDSVPFHLGWNSTERSLRLQARYHDTPYKPPAGRAAAPELSYRVCVGSDVTSIHKYMVRRYFNKPSRVPAPEAFRDPIWSTWALYGRAVDQDKVLRFAQQIRLHHFNSSHLEIDDMYTPAYGDFDFDEVKFPNASDMFRRLRDAGFRVTLWVHPFVNYNSSRFGEGVERELFVREPTGRLPALVRWWNGIGAVLDFTHPKARDWFQGHLRRLRSRYSVASFKFDAGEVSYLPRDFSTYRPLPDPSVWSRRYTEMALPFFSLAEVRVGYQSQNISCFFRLVDRDSVWGYDLGLRSLIPAVLTVSMLGYPFILPDMVGGNAVPQRTAGGDVPERELYIRWLEVAAFMPAMQFSIPPWRYDAEVVAIAQKFAALRASLVAPLLLELAGEVTDTGDPIVRPLWWIAPGDETAHRIDSQFLIGDTLLVAPVLEPGKQERDVYLPAGKWRSYKGELFDKTPVLLTDYPVDLDEIAYFTWAS [KIAA1161]”, in that order: 0.099, -0.254, -4.62 and -3.21.
As for “MLVGQGAGLLGPAVVTAAVVLLLSGVGPAHGSEDIVVGCGGFVKSDVEINYSLIEIKLYTKHGTLKYQTDCAPNNGYFMIPLYDKGDFILKIEPPLGWSFEPTTVELHVDGVSDICTKGGDINFVFTGFSVNGKVLSKGQPLGPAGVQVSLRNTGTEAKIQSTVTQPGGKFAFFKVLPGDYEILATHPTWALKEASTTVRVTNSNANAASPLIVAGYNVSGSVRSDGEPMKGVKFLLFSSLVTKEDVLGCNVSPVPGFQPQDESLVYLCYTVSREDGSFSFYSLPSGGYTVIPFYRGERITFDVAPSRLDFTVEHDSLKIEPVFHVMGFSVTGRVLNGPEGDGVPEAVVTLNNQIKVKTKADGSFRLENITTGTYTIHAQKEHLYFETVTIKIAPNTPQLADIVATGFSVCGRISIIRFPDTVKQMNKYKVVLSSQDKDKSLVTVETDAHGSFCFKAKPGTYKVQVMVPEAETRAGLTLKPQTFPLTVTDRPVMDVAFVQFLASVSGKVSCLDTCGDLLVTLQSLSRQGEKRSLQLSGKVNAMTFTFDNVLPGKYKISIMHEDWCWKNKSLEVEVLEDDVSAVEFRQTGYMLRCSLSHAITLEFYQDGNGRENVGIYNLSKGVNRFCLSKPGVYKVTPRSCHRFEQAFYTYDTSSPSILTLTAIRHHVLGTITTDKMMDVTVTIKSSIDSEPALVLGPLKSVQELRREQQLAEIEARRQEREKNGNEEGEERMTKPPVQEMVDELQGPFSYDFSYWARSGEKITVTPSSKELLFYPPSMEAVVSGESCPGKLIEIHGKAGLFLEGQIHPELEGVEIVISEKGASSPLITVFTDDKGAYSVGPLHSDLEYTVTSQKEGYVLTAVEGTIGDFKAYALAGVSFEIKAEDDQPLPGVLLSLSGGLFRSNLLTQDNGILTFSNLSPGQYYFKPMMKEFRFEPSSQMIEVQEGQNLKITITGYRTAYSCYGTVSSLNGEPEQGVAMEAVGQNDCSIYGEDTVTDEEGKFRLRGLLPGCVYHVQLKAEGNDHIERALPHHRVIEVGNNDIDDVNIIVFRQINQFDLSGNVITSSEYLPTLWVKLYKSENLDNPIQTVSLGQSLFFHFPPLLRDGENYVVLLDSTLPRSQYDYILPQVSFTAVGYHKHITLIFNPTRKLPEQDIAQGSYIALPLTLLVLLAGYNHDKLIPLLLQLTSRLQGVGALGQAASDNSGPEDAKRQAKKQKTRRTLRLQEEFQLMWCLVPWRGTLGIHLFSSLPFASEILLETTATCIHY [NOMO2]”, the “solubility in G1/S (log2)” value in the data set with HeLa Kyoto [1] was -0.0617. Also, in the data set on HeLa Kyoto [2], the “solubility change mitosis (log2)” value was -0.136. For the same sequence, the thermal stability score with HeLa Kyoto [3] (setting [4]) was -0.17; in the data set on HeLa Kyoto [3] (cell cycle stage: mitosis) it was -0.401.
As to “MNLAEICDNAKKGREYALLGNYDSSMVYYQGVMQQIQRHCQSVRDPAIKGKWQQVRQELLEEYEQVKSIVSTLESFKIDKPPDFPVSCQDEPFRDPAVWPPPVPAEHRAPPQIRRPNREVRPLRKEMAGVGARGPVGRAHPISKSEKPSTSRDKDYRARGRDDKGRKNMQDGASDGEMPKFDGAGYDKDLVEALERDIVSRNPSIHWDDIADLEEAKKLLREAVVLPMWMPDFFKGIRRPWKGVLMVGPPGTGKTMLAKAVATECGTTFFNVSSSTLTSKYRGESEKLVRLLFEMARFYAPTTIFIDEIDSICSRRGTSDEHEASRRVKSELLIQMDGVGGALENDDPSKMVMVLAATNFPWDIDEALRRRLEKRIYIPLPTAKGRAELLKINLREVELDPDIQLEDIAEKIEGYSGADITNVCRDASLMAMRRRINGLSPEEIRALSKEELQMPVTKGDFELALKKIAKSVSAADLEKYEKWMVEFGSA [KATNAL1]”, the “solubility in G1/S (log2)” value in the data set on HeLa Kyoto [1] came to 0.0559. In addition, the “solubility change mitosis (log2)” value with HeLa Kyoto [2] was 0.119. In addition, the thermal stability score in the data set on HeLa Kyoto [3] (setting [4]) came out at 1.07; in the data set with HeLa Kyoto [3] (cell cycle stage: mitosis) it was 0.457.
For “MPEESSPRRTPQSIPYQDLPHLVNADGQYLFCRYWKPTGTPKALIFVSHGAGEHSGRYEELARMLMGLDLLVFAHDHVGHGQSEGERMVVSDFHVFVRDVLQHVDSMQKDYPGLPVFLLGHSMGGAIAILTAAERPGHFAGMVLISPLVLANPESATTFKVLAAKVLNLVLPNLSLGPIDSSVLSRNKTEVDIYNSDPLICRAGLKVCFGIQLLNAVSRVERALPKLTVPFLLLQGSADRLCDSKGAYLLMELAKSQDKTLKIYEGAYHVLHKELPEVTNSVFHEINMWVSQRTATAGTASPP [MGLL]”, in that order: 0.347, -0.16, 0.0154 and -0.539.

For the origin of these results see the supplement of paper PMC5998384.
